Data on two molecules can be found in PMC11931385, “Structural and functional analysis of cancer-associated missense variants in the retinoblastoma protein pocket domain” (The Journal of Biological Chemistry, 2025).

No end group written: not given here. TMR = tetramethyl rhodamine dye

Common to all, as to test: fluorescence polarisation; 25 °C; unlabeled Rb^P titrated against 1.5 nM TMR-E2F1^TD or 7.5 nM TMR-E7^LxCxE; 25 mM Tris pH 8.0, 200 mM NaCl, 1 mM DTT, 0.1% Tween-20; 2 min incubation; quadratic fit; apparent Kd for the variants, Kd for WT
What all share (details): both partners purified

In test [1] the target is T1, Rb^P Q504E (human, UniProt P06400 380-788, Q504E).
T1 construct: also called variant 19
T1 sequence (looked up): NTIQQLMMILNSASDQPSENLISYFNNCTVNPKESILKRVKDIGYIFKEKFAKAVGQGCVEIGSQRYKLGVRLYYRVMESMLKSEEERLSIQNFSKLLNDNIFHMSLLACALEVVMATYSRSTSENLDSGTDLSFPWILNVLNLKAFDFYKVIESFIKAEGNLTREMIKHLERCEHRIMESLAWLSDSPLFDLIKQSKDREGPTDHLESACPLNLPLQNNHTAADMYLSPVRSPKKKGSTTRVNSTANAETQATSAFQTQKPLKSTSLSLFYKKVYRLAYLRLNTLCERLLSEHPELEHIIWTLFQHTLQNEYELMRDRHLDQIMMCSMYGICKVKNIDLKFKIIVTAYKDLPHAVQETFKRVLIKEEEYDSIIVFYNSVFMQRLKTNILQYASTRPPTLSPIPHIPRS

Test [2] addresses T2, Rb^P E440K (human, UniProt P06400 380-788, E440K).
T2 construct: also called variant 1
T2 sequence (looked up): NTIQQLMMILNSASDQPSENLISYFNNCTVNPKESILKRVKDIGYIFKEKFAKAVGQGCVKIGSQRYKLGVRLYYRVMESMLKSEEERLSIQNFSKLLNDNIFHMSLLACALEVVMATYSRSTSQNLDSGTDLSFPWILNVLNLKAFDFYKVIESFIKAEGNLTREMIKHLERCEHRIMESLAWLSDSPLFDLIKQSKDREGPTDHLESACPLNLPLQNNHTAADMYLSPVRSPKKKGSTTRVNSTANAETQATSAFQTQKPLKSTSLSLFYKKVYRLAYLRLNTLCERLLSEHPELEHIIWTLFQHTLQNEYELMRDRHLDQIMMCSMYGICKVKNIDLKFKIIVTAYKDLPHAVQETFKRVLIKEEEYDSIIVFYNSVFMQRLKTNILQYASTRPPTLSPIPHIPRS

In test [3] the target is T3, Rb^P Q444L (human, UniProt P06400 380-788, Q444L).
T3 construct: also called variant 3
T3 sequence (looked up): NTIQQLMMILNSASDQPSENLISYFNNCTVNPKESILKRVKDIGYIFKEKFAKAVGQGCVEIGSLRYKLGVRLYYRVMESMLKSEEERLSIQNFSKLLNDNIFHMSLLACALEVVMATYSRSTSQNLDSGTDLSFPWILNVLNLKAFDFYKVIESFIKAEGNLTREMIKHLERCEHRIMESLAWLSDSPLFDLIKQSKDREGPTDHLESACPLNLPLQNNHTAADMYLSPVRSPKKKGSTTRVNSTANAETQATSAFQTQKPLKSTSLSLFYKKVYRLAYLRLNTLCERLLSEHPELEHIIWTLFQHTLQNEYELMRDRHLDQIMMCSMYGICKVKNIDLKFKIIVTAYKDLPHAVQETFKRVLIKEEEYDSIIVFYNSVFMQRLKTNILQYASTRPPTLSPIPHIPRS

Test [4] deals with T4, Rb^P K462E (human, UniProt P06400 380-788, K462E).
T4 construct: also called variant 8
T4 sequence (looked up): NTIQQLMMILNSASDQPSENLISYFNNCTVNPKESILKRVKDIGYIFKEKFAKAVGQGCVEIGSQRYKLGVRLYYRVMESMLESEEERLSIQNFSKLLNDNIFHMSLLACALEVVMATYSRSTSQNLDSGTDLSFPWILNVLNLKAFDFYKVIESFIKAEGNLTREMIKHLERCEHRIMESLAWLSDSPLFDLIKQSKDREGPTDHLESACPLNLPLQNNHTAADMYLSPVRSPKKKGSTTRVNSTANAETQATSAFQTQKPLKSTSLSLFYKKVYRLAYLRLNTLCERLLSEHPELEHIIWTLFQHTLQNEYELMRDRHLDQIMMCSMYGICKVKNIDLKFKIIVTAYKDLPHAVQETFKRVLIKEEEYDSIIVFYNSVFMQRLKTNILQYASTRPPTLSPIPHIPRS

For test [5], the target named is T5, Rb^P P595L (human, UniProt P06400 380-788, P595L).
T5 construct: also called variant 35
T5 sequence (looked up): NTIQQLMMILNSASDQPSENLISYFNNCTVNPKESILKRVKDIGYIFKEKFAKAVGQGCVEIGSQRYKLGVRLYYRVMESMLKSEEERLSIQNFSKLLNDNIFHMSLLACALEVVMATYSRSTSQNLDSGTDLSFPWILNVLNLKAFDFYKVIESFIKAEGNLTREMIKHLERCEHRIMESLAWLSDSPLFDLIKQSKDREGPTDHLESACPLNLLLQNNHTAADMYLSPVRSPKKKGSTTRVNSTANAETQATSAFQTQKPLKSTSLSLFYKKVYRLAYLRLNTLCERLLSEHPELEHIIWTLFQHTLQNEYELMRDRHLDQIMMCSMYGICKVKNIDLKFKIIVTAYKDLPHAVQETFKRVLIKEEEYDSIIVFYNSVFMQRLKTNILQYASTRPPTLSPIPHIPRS

B1: TMR-E2F1^TD, peptide of the E2F1 transactivation domain (peptide)
peptide: {TMR}-GEGIRDLFDCDFGDLTPLD
notes: also called E2F^TD; source: synthetic peptide, bought: GenScript
For B1, the Kd in test [1] turned out to be 0.018 µM; in test [2], 0.012 µM; in test [3] it was 0.014 µM; in test [4], 0.027 µM; in test [5], 0.046 µM.

B2: TMR-E7^LxCxE, LxCxE peptide of the E7 oncoprotein from HPV (peptide)
peptide: DLYCYEQLN
modifications: also: TMR label, position not given here
notes: source: synthetic peptide, bought: GenScript
As for B2, the Kd is 0.005 µM in test [1]; 0.005 µM in test [2]; 0.004 µM in test [3]; 0.011 µM in test [4]; 0.014 µM in test [5].
